The target in experiment [1] is hMC1-R (human) (UniProt Q01726). Nature of the experiment: ratio Ki hMC1-R / Ki hMC4-R, same assay.
Experiment [2] has the same target. The experiment in a line: competition with [125I]-NDP-α-MSH, CHO-K1 membranes.
Experiment [3] has as its target hMC3-R (human) (UniProt P41968). Described as above.
Experiment [4] concerns the target hMC4-R (human) (UniProt P32245). The description is as above.
The target in experiment [5] is hMC5-R (human) (UniProt P33032). Described as above.
Experiment [6] has as its target human melanocortin receptor subtype 1 (hMC1-R) (human), Q01726. The experiment in a line: [125I]-NDP-α-MSH competition, membranes.
Experiment [7] deals with human melanocortin receptor subtype 3 (hMC3-R) (human), P41968. The experiment in a line: [125I]-NDP-α-MSH competition, membranes.
The target of experiment [8] is human melanocortin receptor subtype 4 (hMC4-R) (human), P32245. Nature of the experiment: [125I]-NDP-α-MSH competition, membranes.
For experiment [9], the target named is human melanocortin receptor subtype 5 (hMC5-R) (human), P33032. Nature of the experiment: [125I]-NDP-α-MSH competition, membranes.
In experiment [10] the target is hMC1-R (human) (UniProt Q01726). The experiment in a line: cell-based or functional assay.
Experiment [11] addresses hMC3-R (human) (UniProt P41968). The experiment in a line: cell-based or functional assay.
The target in experiment [12] is hMC4-R (human) (UniProt P32245). Nature of the experiment: cell-based or functional assay.
The target of experiment [13] is hMC5-R (human) (UniProt P33032). Nature of the experiment: cell-based or functional assay.

Bridge positions count the residues as written; N and C are the ends. Square brackets hold non-standard residues; d marks the D form. Ends that are not written are not given here. Bip = N[C@@H](Cc1ccc(-c2ccccc2)cc1)C(=O)O; 1Nal = N[C@@H](Cc1cccc2ccccc12)C(=O)O; 2Nal = N[C@@H](Cc1ccc2ccccc2c1)C(=O)O; d2Nal = N[C@H](Cc1ccc2ccccc2c1)C(=O)O; hArg = N=C(N)NCCCC[C@H](N)C(=O)O; Pen = CC(C)(S)[C@H](N)C(=O)O; Nle = CCCC[C@H](N)C(=O)O; Ahx = NCCCCCC(=O)O; GABA = NCCCC(=O)O; βAla = NCCC(=O)O

hMC1-R (human), sequence (Q01726 whole entry): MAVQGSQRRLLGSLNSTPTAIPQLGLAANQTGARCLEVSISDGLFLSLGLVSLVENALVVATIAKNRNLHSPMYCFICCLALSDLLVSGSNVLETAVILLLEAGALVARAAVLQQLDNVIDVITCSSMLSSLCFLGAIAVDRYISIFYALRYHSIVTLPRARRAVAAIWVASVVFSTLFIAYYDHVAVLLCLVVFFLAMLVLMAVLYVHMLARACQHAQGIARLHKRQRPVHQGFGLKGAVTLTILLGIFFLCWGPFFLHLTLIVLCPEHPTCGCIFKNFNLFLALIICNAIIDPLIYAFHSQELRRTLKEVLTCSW
hMC3-R (human), sequence (P41968 whole entry): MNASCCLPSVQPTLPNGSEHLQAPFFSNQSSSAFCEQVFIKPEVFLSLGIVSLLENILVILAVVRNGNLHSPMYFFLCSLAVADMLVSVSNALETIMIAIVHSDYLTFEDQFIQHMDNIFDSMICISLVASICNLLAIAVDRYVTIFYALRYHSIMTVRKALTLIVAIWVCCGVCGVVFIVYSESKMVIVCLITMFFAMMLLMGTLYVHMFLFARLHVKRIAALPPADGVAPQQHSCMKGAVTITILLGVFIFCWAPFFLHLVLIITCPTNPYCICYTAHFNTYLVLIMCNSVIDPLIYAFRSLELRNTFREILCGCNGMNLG
hMC5-R (human), sequence (P33032 whole entry): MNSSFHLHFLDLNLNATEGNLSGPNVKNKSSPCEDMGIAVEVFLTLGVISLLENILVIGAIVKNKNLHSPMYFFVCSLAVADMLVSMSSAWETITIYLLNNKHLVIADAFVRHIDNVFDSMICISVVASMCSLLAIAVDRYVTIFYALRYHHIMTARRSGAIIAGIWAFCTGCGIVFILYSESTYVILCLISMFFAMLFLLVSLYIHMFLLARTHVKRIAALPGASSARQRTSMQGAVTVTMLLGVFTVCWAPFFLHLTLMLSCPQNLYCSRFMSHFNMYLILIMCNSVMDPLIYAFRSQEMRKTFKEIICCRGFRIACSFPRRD
hMC4-R (human), sequence (P32245 whole entry): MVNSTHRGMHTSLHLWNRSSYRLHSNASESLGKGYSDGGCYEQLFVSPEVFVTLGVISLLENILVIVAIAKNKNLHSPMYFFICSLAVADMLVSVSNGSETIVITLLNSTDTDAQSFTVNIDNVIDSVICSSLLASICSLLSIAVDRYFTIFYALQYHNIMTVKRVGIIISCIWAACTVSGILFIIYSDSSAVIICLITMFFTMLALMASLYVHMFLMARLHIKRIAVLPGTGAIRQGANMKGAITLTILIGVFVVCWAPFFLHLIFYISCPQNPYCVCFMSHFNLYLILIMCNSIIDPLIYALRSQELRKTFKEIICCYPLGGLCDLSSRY
human melanocortin receptor subtype 1 (hMC1-R) (human), Q01726, sequence (Q01726 whole entry): as the sequence (Q01726 whole entry) above
human melanocortin receptor subtype 3 (hMC3-R) (human), P41968, sequence (P41968 whole entry): as the sequence (P41968 whole entry) above
human melanocortin receptor subtype 5 (hMC5-R) (human), P33032, sequence (P33032 whole entry): as the sequence (P33032 whole entry) above
human melanocortin receptor subtype 4 (hMC4-R) (human), P32245, sequence (P32245 whole entry): as the sequence (P32245 whole entry) above

B1: Ac-Nle-c(Cys-D-Ala-His-D-Phe-Arg-Trp-D-Ala-Cys)-NH2 (peptide)
peptide: Ac-[Nle]C[dA]H[dF]RW[dA]C-NH2
modifications: disulfide 2-9
SMILES: CCCC[C@H](NC(C)=O)C(=O)N[C@H]1CSSC[C@@H](C(N)=O)NC(=O)[C@@H](C)NC(=O)[C@H](Cc2c[nH]c3ccccc23)NC(=O)[C@H](CCCNC(=N)N)NC(=O)[C@@H](Cc2ccccc2)NC(=O)[C@H](Cc2c[nH]cn2)NC(=O)[C@@H](C)NC1=O
For the molecule B1, the Ki hMC1-R/MC4-R in experiment [1] was 0.08. The inhibition constant Ki in experiment [2] turned out to be 3.93 nM; in [3], 876 nM; in experiment [4] it was 48 nM; in experiment [5], 4940 nM.

B2: D-Phe-c(Cys-His-D-Phe-Arg-Trp-β-Ala-D-Cys)-Thr-NH2 (peptide)
peptide: [dF]CH[dF]RW[βAla][dC]T-NH2
modifications: disulfide 2-8; N-terminus assumed
SMILES: C[C@@H](O)[C@H](NC(=O)[C@H]1CSSC[C@H](NC(=O)[C@H](N)Cc2ccccc2)C(=O)N[C@@H](Cc2c[nH]cn2)C(=O)N[C@H](Cc2ccccc2)C(=O)N[C@@H](CCCNC(=N)N)C(=O)N[C@@H](Cc2c[nH]c3ccccc23)C(=O)NCCC(=O)N1)C(N)=O
As for B2, the Ki hMC1-R/MC4-R in experiment [1] amounted to 0.08. Also, the Ki in experiment [2] came out at 0.207 nM; in experiment [3], 43.2 nM; in [4] it was 2.58 nM; in [5], 344 nM.

B3: Ac-Nle-c(Pen-His-D-Phe-Arg-Trp-Gaba-Cys)-NH2 (peptide)
peptide: Ac-[Nle][Pen]H[dF]RW[GABA]C-NH2
modifications: disulfide 2-8
SMILES: CCCC[C@H](NC(C)=O)C(=O)N[C@@H]1C(=O)N[C@@H](Cc2c[nH]cn2)C(=O)N[C@H](Cc2ccccc2)C(=O)N[C@@H](CCCNC(=N)N)C(=O)N[C@@H](Cc2c[nH]c3ccccc23)C(=O)NCCCC(=O)N[C@H](C(N)=O)CSSC1(C)C
For the molecule B3, in [1], the Ki hMC1-R/MC4-R came out at 0.09. The Ki in [2] was 0.537 nM; in [3], 86.1 nM; in experiment [4] it was 5.89 nM; in [5], 2.56 nM.

B4: Ac-c(Cys-Glu-His-D-2-Nal-Arg-2-Nal-Ala-Cys)-Pro-Pro-Lys-Asp-NH2 (peptide)
peptide: Ac-CEH[d2Nal]R[2Nal]ACPPKD-NH2
modifications: disulfide 1-8
SMILES: CC(=O)N[C@H]1CSSC[C@@H](C(=O)N2CCC[C@H]2C(=O)N2CCC[C@H]2C(=O)N[C@@H](CCCCN)C(=O)N[C@@H](CC(=O)O)C(N)=O)NC(=O)[C@H](C)NC(=O)[C@H](Cc2ccc3ccccc3c2)NC(=O)[C@H](CCCNC(=N)N)NC(=O)[C@@H](Cc2ccc3ccccc3c2)NC(=O)[C@H](Cc2c[nH]cn2)NC(=O)[C@H](CCC(=O)O)NC1=O
In the case of B4, the Ki in [6] was 87.8 nM; in experiment [7], 9.08 nM; in experiment [8], 1.2 nM; in experiment [9], 359 nM.

B5: Ac-c(Cys-Glu-His-D-2-Nal-Arg-1-Nal-Ala-Cys)-Pro-Pro-Lys-Asp-NH2 (peptide)
peptide: Ac-CEH[d2Nal]R[1Nal]ACPPKD-NH2
modifications: disulfide 1-8
SMILES: CC(=O)N[C@H]1CSSC[C@@H](C(=O)N2CCC[C@H]2C(=O)N2CCC[C@H]2C(=O)N[C@@H](CCCCN)C(=O)N[C@@H](CC(=O)O)C(N)=O)NC(=O)[C@H](C)NC(=O)[C@H](Cc2cccc3ccccc23)NC(=O)[C@H](CCCNC(=N)N)NC(=O)[C@@H](Cc2ccc3ccccc3c2)NC(=O)[C@H](Cc2c[nH]cn2)NC(=O)[C@H](CCC(=O)O)NC1=O
Turning to B5, the Ki stood at 124 nM in experiment [6], 17.8 nM in experiment [7], 1.11 nM in [8] and 348 nM in experiment [9].

B6: Ac-Nle-c(Cys-D-Ala-His-D-2-Nal-Arg-2-Nal-Cys)-NH2 (peptide)
peptide: Ac-[Nle]C[dA]H[d2Nal]R[2Nal]C-NH2
modifications: disulfide 2-8
SMILES: CCCC[C@H](NC(C)=O)C(=O)N[C@H]1CSSC[C@@H](C(N)=O)NC(=O)[C@H](Cc2ccc3ccccc3c2)NC(=O)[C@H](CCCNC(=N)N)NC(=O)[C@@H](Cc2ccc3ccccc3c2)NC(=O)[C@H](Cc2c[nH]cn2)NC(=O)[C@@H](C)NC1=O
For B6, in experiment [1], the Ki hMC1-R/MC4-R is 12.8. For the same molecule, the Ki was 32.5 nM in experiment [2], 5.85 nM in [3], 2.53 nM in [4] and 94.6 nM in experiment [5].

B7: D-Phe-c(Cys-His-D-Phe-hArg-Trp-β-Ala-D-Cys)-Thr-NH2 (peptide)
peptide: [dF]CH[dF][hArg]W[βAla][dC]T-NH2
modifications: disulfide 2-8; N-terminus assumed
SMILES: C[C@@H](O)[C@H](NC(=O)[C@H]1CSSC[C@H](NC(=O)[C@H](N)Cc2ccccc2)C(=O)N[C@@H](Cc2c[nH]cn2)C(=O)N[C@H](Cc2ccccc2)C(=O)N[C@@H](CCCCNC(=N)N)C(=O)N[C@@H](Cc2c[nH]c3ccccc23)C(=O)NCCC(=O)N1)C(N)=O
With B7, the Ki hMC1-R/MC4-R in experiment [1] stood at 0.04. The Ki in experiment [2] came to 0.442 nM; in [3], 123 nM; in experiment [4], 10.3 nM; in experiment [5] it was 521 nM.

B8: D-Phe-c(Cys-His-D-Phe-Arg-Trp-Gaba-D-Cys)-Thr-NH2 (peptide)
peptide: [dF]CH[dF]RW[GABA][dC]T-NH2
modifications: disulfide 2-8; N-terminus assumed
SMILES: C[C@@H](O)[C@H](NC(=O)[C@H]1CSSC[C@H](NC(=O)[C@H](N)Cc2ccccc2)C(=O)N[C@@H](Cc2c[nH]cn2)C(=O)N[C@H](Cc2ccccc2)C(=O)N[C@@H](CCCNC(=N)N)C(=O)N[C@@H](Cc2c[nH]c3ccccc23)C(=O)NCCCC(=O)N1)C(N)=O
With B8, the Ki hMC1-R/MC4-R in [1] amounted to 0.09. For the same molecule, the Ki worked out at 0.42 nM in [2], 106 nM in experiment [3], 4.75 nM in experiment [4] and 1260 nM in [5].

As to [dF]CH[d(Et)Tyr]RW[βAla][dC]T-NH2 (disulfide 2-8) [D-Phe-c(Cys-His-D-(Et)Tyr-Arg-Trp-β-Ala-D-Cys)-Thr-NH2], the Ki hMC1-R/MC4-R in experiment [1] amounted to 0. The Ki in experiment [2] is 0.05 nM; in experiment [3], 9.3 nM; in experiment [4] it was 1.1 nM; in experiment [5], 2.9 nM.

In the case of Ac-[Nle]CH[d2Nal]RW[Ahx]C-NH2 (disulfide 2-8) [Ac-Nle-c(Cys-His-D-2-Nal-Arg-Trp-Ahx-Cys)-NH2], the cAMP EC50 was found to be 0.581 nM in experiment [10] and 0.126 nM in experiment [13]. Further, the cAMP Kb in experiment [11] amounted to 10.8 nM; in [12] it was 0.967 nM. Further, in experiment [1], the Ki hMC1-R/MC4-R came to 0.33. Moreover, the Ki was 0.333 nM in experiment [2], 2.91 nM in experiment [3], 0.998 nM in [4] and 0.366 nM in experiment [5].

B9: D-Phe-c(Cys-His-D-Phe-Arg-Bip-β-Ala-D-Cys)-Thr-NH2 (peptide)
peptide: [dF]CH[dF]R[Bip][βAla][dC]T-NH2
modifications: disulfide 2-8; N-terminus assumed
SMILES: C[C@@H](O)[C@H](NC(=O)[C@H]1CSSC[C@H](NC(=O)[C@H](N)Cc2ccccc2)C(=O)N[C@@H](Cc2c[nH]cn2)C(=O)N[C@H](Cc2ccccc2)C(=O)N[C@@H](CCCNC(=N)N)C(=O)N[C@@H](Cc2ccc(-c3ccccc3)cc2)C(=O)NCCC(=O)N1)C(N)=O
Consider B9, for which, in experiment [1], the Ki hMC1-R/MC4-R turned out to be 0.01. The Ki in experiment [2] turned out to be 5.8 nM; in [3] it was 3370 nM; in experiment [4] it was 583 nM; in [5] it was 1130 nM.

B10: Ac-Nle-c(Cys-D-Ala-His-D-2-Nal-Arg-1-Nal-Cys)-NH2 (peptide)
peptide: Ac-[Nle]C[dA]H[d2Nal]R[1Nal]C-NH2
modifications: disulfide 2-8
SMILES: CCCC[C@H](NC(C)=O)C(=O)N[C@H]1CSSC[C@@H](C(N)=O)NC(=O)[C@H](Cc2cccc3ccccc23)NC(=O)[C@H](CCCNC(=N)N)NC(=O)[C@@H](Cc2ccc3ccccc3c2)NC(=O)[C@H](Cc2c[nH]cn2)NC(=O)[C@@H](C)NC1=O
In the case of B10, the cAMP EC50 is 383 nM in experiment [10] and 2840 nM in [13]. In addition, the results for the cAMP Kb in [11] and in experiment [12] were 61.5 nM and 53.6 nM, respectively. Moreover, the Ki hMC1-R/MC4-R in experiment [1] was found to be 37.1. Moreover, the Ki in experiment [2] was 114 nM; in experiment [3], 63.9 nM; in [4] it was 3.07 nM; in [5] it was 1660 nM.

In the case of Ac-[Nle]CH[d2Nal]RW[GABA]C-NH2 (disulfide 2-8) [Ac-Nle-c(Cys-His-D-2-Nal-Arg-Trp-Gaba-Cys)-NH2], the results for the cAMP EC50 in experiment [10] and in experiment [13] were 0.231 nM and 0.153 nM, respectively. The cAMP Kb in experiment [11] turned out to be 18.4 nM; in [12], 0.782 nM. The Ki hMC1-R/MC4-R in experiment [1] is 1.05. Also, the Ki was determined as 0.393 nM in experiment [2], 1.86 nM in [3], 0.375 nM in [4] and 1.11 nM in experiment [5].

B11: D-Phe-c(Cys-His-D-Phe-hArg-Bip-β-Ala-D-Cys)-Thr-NH2 (peptide)
peptide: [dF]CH[dF][hArg][Bip][βAla][dC]T-NH2
modifications: disulfide 2-8; N-terminus assumed
SMILES: C[C@@H](O)[C@H](NC(=O)[C@H]1CSSC[C@H](NC(=O)[C@H](N)Cc2ccccc2)C(=O)N[C@@H](Cc2c[nH]cn2)C(=O)N[C@H](Cc2ccccc2)C(=O)N[C@@H](CCCCNC(=N)N)C(=O)N[C@@H](Cc2ccc(-c3ccccc3)cc2)C(=O)NCCC(=O)N1)C(N)=O
For the molecule B11, the Ki hMC1-R/MC4-R in experiment [1] was found to be 0.01. Moreover, the Ki stood at 1.68 nM in [2], 1260 nM in experiment [3], 172 nM in [4] and 1220 nM in [5].

As to [dF]CH[d(Et)Tyr][hArg][Bip][βAla][dC]T-NH2 (disulfide 2-8) [D-Phe-c(Cys-His-D-(Et)Tyr-hArg-Bip-β-Ala-D-Cys)-Thr-NH2], the Ki hMC1-R/MC4-R in [1] is 0. In addition, the inhibition constant Ki in [2] was determined as 0.128 nM; in [3] it was 85.6 nM; in experiment [4] it was 36.9 nM; in experiment [5], 38 nM.

The values above are taken from patent publication US20120135923A1, “Use of Melanocortins to Treat Dyslipidemia” (IPSEN PHARMA, S.A.S., priority 2009, published 2012).
